For data set [1], the target named is T1, TGFβ1 (Homo sapiens, UniProt P01137 P01137:279-390). The data set can be described thus: filter; boundary experiment, each terminus separately. The settings on record: tags: Genentech or R&D Systems; chain copies: 2.
In data set [2] the target is T2, KGF (hKGF) (Homo sapiens, UniProt P21781 P21781:32-194).
T2 sequence: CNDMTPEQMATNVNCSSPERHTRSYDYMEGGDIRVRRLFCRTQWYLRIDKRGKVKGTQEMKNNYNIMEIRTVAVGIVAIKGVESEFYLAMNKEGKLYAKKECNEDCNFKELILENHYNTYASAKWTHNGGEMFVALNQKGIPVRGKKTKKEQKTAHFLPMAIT
The data set can be described thus: filter; high +, low +. The following applies: tags: Upstate Biotechnology. The protocol: In an effort to identify shorter KGF ligands that retained binding, the binding activity of various deletions of the shortest truncate of ligand 14F, namely 14F3′T were tested. Deletions were tested in all the structural elements of the proposed pseudoknot structure. RNA transcripts containing 2′F pyrimidines and 2′OH purines were obtained by in vitro transcription using synthetic DNA templates. The activity of each ligand is shown by scoring for both the high (H) and low (L) affinity component of the 14F3′T binding curve with +(active) or −(not active). Truncates T35 and T36 represent two complementary halves of 14F3′T molecule and were additionally tested as an equimolar mixture. The structural elements of the proposed pseudoknot structure are separated by (1) and are indicated by symbols S1 (stem 1), S2 (stem 2), L1 (loop 1) and L3 (loop 3). The proposed pseudoknot structure for 14F3′T is a non-H-type pseudoknot and lacks L2 (loop 2). The complementary sequences forming S1 (S1 and S1′) and S2 (S2 and S2′) are marked by single and double underlines respectfully. In the tabulated sequences, deleted bases were replaced with periods (.). […] Deletions in loop 3 (L3), however, were tolerated as long as one copy of the RRYY box remained intact. The shortest ligand that retained activity is T22 which is a 43-mer. In trying to obtain shorter ligands by truncating L3 further a mutant version of T22 (designated T22mu) was used where the last GC base pair of S1 was eliminated by a G to U mutation at position 6. The reasoning for this mutation was to enhance the flexibility of the double stranded region of this ligand by allowing an unpaired base between S1 and S2.

In data set [3] the target is T1, TGFβ1. Nature of the data set: filter; 37 C, KRH buffer. The following applies: tags: Genentech; biotinylated version used in bead assay; chain copies: 2.
Data set [4] deals with T1, TGFβ1. Nature of the data set: filter; not inhibitory. The settings on record: tags: Genentech; biotinylated version used in bead assay; chain copies: 2.
The target in data set [5] is T1, TGFβ1. The data set can be described thus: filter; not inhibitory in cell assay. The settings on record: tags: Genentech; biotinylated version used in bead assay; chain copies: 2.
In data set [6] the target is T2, KGF (hKGF). Nature of the data set: filter; similar to random RNA. The settings on record: tags: Upstate Biotechnology; label: 32P.
The target of data set [7] is PDGF-BB (Homo sapiens, UniProt P01127 P01127:82-190). Nature of the data set: competition; PDGF alpha-receptor PAE cells, 4 C. The following applies: tags: R&D Systems, E. coli; chain copies: B chain dimer; three-way helix junction. As for the experimental part:
The binding of ¹²⁵I-PDGF-AA and ¹²⁵I-PDGF-BB to porcine aortic endothelial (PAE) cells transfected with PDGF α- or β-receptors were performed as described (Heldin et al., (1988) EMBO J. 7:1387-1394). Different concentrations of DNA ligands were added to the cell culture (1.5 cm²) in 0.2 ml of phosphate buffered saline supplemented with 1 mg bovine serum albumin per ml together with ¹²⁵I-PDGF-AA (2 ng, 100,000 cpm) or ¹²⁵I-PDGF-BB (2 ng, 100,000 cpm). After incubation at 4° C. for 90 min, the cell cultures were washed and cell associated radioactivity determined in a γ-counter (Heldin et al., (1988) EMBO J. 7:1387-1394).
In order to determine whether the DNA ligands to PDGF were able to inhibit the effects of PDGF isoforms on cultured cells, the effects on binding of ¹²⁵I-labeled PDGF isoforms to PDGF α- and β-receptors stably expressed in porcine aortic endothelial (PAE) cells by transfection was determined.

Data set [8] has as its target T1, TGFβ1. The data set can be described thus: cell_activity. The following applies: tags: Genentech or R&D Systems; chain copies: 2. As for the experimental part:
MLEC-Pail/luc cells were plated at 3.2×10⁴ cells per well in a 96 well Falcon plate, in 100 μl of DME+10% fetal bovine serum overnight. Media was made from autoclaved water. The cells were washed three times ([…]) in serum free DME plus Solution A (1:1). Solution A is 30 mM Hepes pH 7.6, 10 mM glucose, 3.0 mM KCl, 131 mM NaCl, 1.0 mM disodium phosphate. Samples (100 μl) were added in DME containing 20 mM Hepes pH 7.5, and 0.1% BSA (Fluka, radioimmunoassay grade). All samples were in triplicate. After six hours at 37° C. in a 5% CO₂ incubator the media was removed and cells were washed three times (100 μl each) in cold PBS. Lysis buffer (75 μl) (Analytical Luminescence Laboratory) was added and the plates incubated on ice for 20 min. The plates were sealed and frozen at −80° C. until assayed. Samples (25 μl) were assayed for luciferase activity with the Enhanced Luciferase Assay Kit from Analytical Luminescence Laboratory (San Diego, Calif., USA) according to the manufacturer's instructions using the Berthold Microlumat LB96P luminometer.
Ligands tested for inhibition of TGFβ1 activity were tested at a minimum of five concentrations. The ligands were serially diluted in DME, 20 mM Hepes pH 7.5, 0.1% Fluka BSA in polypropylene tubes and an equal volume of media containing 12 pM TGFβ1 was added to each tube, vortexed and transferred to the cells without further incubation.

Data set [9] has as its target T2, KGF (hKGF). Nature of the data set: filter; biphasic, high affinity 21%; Kd2 2.10 nM. The following applies: tags: Upstate Biotechnology; label: 32P.

T1 sequence (P01137 279-390, one chain of several): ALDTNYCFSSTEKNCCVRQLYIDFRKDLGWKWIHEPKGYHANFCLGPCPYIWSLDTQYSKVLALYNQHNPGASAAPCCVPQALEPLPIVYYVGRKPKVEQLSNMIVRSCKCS
Chain of PDGF-BB (P01127 82-190, one chain of several): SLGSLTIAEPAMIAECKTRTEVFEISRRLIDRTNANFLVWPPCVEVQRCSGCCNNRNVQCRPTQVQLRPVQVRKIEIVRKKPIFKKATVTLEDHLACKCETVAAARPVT

In the case of GCUUCCGAGUAGACAGGAGGGAGGGGUGGAUGUGGCGUCUAC (ssRNA, modified pyrimidines) [lib3-13 boundaries (38-79)], in data set [1], the binding result is “binds”.
Take GGGAGGACGAUGCGGUGGUCUCCCCUAAACUUUCUCCAUCGUAUC (ssRNA, 2'-F pyrimidines) [T4]: the binding result in [2] is “binds”.

B1: lib3-3 (ssRNA)
RNA: GGGGGAGAACGCGGAUCCGAGCAACCCCAGGCGCAUAGCUUCCGAGUAGACAGGAGGGAGGGGUGGAUGUGGCGUCUACUCGGUGUCGUGAAGCUUCGCUCUAGAUCUCCCUUUAGUGAGGGUUA
modifications: 2'-NH2 pyrimidines
In turn, B1 displayed a Kd in data set [3] of 1.7 nM.

B2: lib1-20-3-82 (ssRNA)
RNA: GGGGGAGAACGCGGAUCCUGCUAGACCGAGGAUGCAAAGGGACAUGCAUUAGGGAAACCUAUGUAUAAGAACGCGGUCGCAG
modifications: 2'-F pyrimidines
B2 yielded a Kd in data set [4] of 6.1 nM.

B3: lib7-21 (ssRNA)
RNA: GGGGGAGAACGCGGAUCCGAGCAAUCCCGGGCGCAUAGCUUCCGAGGAGACAGGCGGGAGGGGUGGAUGUGGCGUCUCGAGAAGCUUCGCUCUAGAUCUCCCUUUAGUGAGGGUUA
modifications: 2'-F U, 2'-NH2 C
Regarding B3, the Kd in data set [5] amounted to 2.4 nM.

B4: lib7-43 (ssRNA)
RNA: GGGGGAGAACGCGGAUCCGAGCAAUCCCAGGCGCAUAGCUUCCGAGUAGACAGGCGGGAGGGGUGGAUGUGGCGUCUCGAGAAGCUUCGCUCUAGAUCUCCCUUUAGUGAGGGUUA
modifications: 2'-F U, 2'-NH2 C
In data set [5], B4 gave a dissociation constant (Kd) of 3.3 nM.

B5: lib2-6-4 (ssRNA)
RNA: GGGGGAGAACGCGGAUCCGAGCAAUCCCAGGCGCAUAGCUUCCGAGUAGACAGGAGGGAGGGGUGGAUGUGGUGUCUCGAGAAGCUUCGCUCUAGAUCUCCCUUUAGUGAGGGUUA
modifications: 2'-NH2 pyrimidines
B5 registered a Kd in data set [5] of 3.1 nM.

B6: lib6-23 (ssRNA)
RNA: GGGGGAGAACGCGGAUCCAAGCUUCGAGUAGACAGGAGGGAGGGGUGGAUGUGGAGUCUCGAGAAGCUUCGCUCUAGAUCUCCCUUUAGUGAGGGUUA
modifications: 2'-NH2 pyrimidines
Consider B6, for which the Kd in data set [5] worked out at 3.4 nM.
In the case of GGGAGGACGAUGCGGUGGUCUCCCAAUUCUAUUCUCCAUCGUAUC (ssRNA, 2'-F pyrimidines) [T5], the binding result in [2] was “binds”.

B7: lib4-12 boundaries (ssRNA)
RNA: GGAGAACGCGGAUCCUGAGAAGGACGUCGGGGUCAACGGGGUGAGGUGCAGCAGAAAGGGCCGGCACCA
modifications: modified pyrimidines
For the molecule B7, the binding result in data set [1] is reported as “binds”.

B8: 59N (ssRNA)
RNA: GGGAGGACGAUGCGGGGUGGGUGGUUACCUGUAAUUAUAUUGAUUCUGGCUUUAGCAGACGACUCGCCCGA
modifications: 2'-NH2 pyrimidines
B8 gave a Kd in data set [6] of 22 nM.

B9: lib3-45 (ssRNA)
RNA: GGGGGAGAACGCGGAUCCGGAAGUCUGGUCUUUGGGGAGUCCGCAUGGCCCUGGCGAAAGCUUCGCUCUAGAUCUCCCUUUAGUGAGGGUUA
modifications: 2'-NH2 pyrimidines
In turn, B9 registered a Kd in data set [4] of 1.9 nM.

B10: 65N (ssRNA)
RNA: GGGAGGACGAUGCGGUAACGUGGAAUAGGGUUAAACAGCUGGAAAUAACGUAGGUGGCCAGACGACUCGCCCGA
modifications: 2'-NH2 pyrimidines
As for B10, in data set [6], the Kd is 26.6 nM.

B11: lib5-48 (ssRNA)
RNA: GGGGGAGAACGCGGAUCCGGCAAUCCCAGGCGCAUAGCUUCCGAGUAGACAGGAGGGAGGGGUGGAUGUGGUGUACGAGGAAGCUUCGCUCUAGAUCUCCCUUUAGUGAGGGUUA
modifications: 2'-NH2 pyrimidines
Regarding B11, the Kd in data set [5] is 3.8 nM.

B12: 57N (ssRNA)
RNA: GGGAGGACGAUGCGGUCGUGGGGUGGGUGGGGGCAGCGUUGGAAUAAGUAACUGGUAACGGCUGGCCAGACGACUCGCCCGA
modifications: 2'-NH2 pyrimidines
Take B12: in [6], binding was put at a Kd of 35.8 nM.
On to GGGAGGACGAUGCGGUGGUCUCCCAAUUCUAUCUCCAUCGUAUC (ssRNA, 2'-F pyrimidines) [T18], for which, in [2], the binding result was “binds”.
Take GGGAGGACGAUGCGGUGGUCUCCCAAUUCUUUCUCCAUCGUAUC (ssRNA, 2'-F pyrimidines) [T21]: the binding result in data set [2] is given as “binds”.
Take TGGGAGGGCGCGTTCTTCGTGGTTACTTTTAGTCCCGT (ssDNA, 3'-3' idT) [20t]: in [7], the IC50 is ~1 nM.
Same read-out and setting: then TACTCAGGGCACTGCAAGCAATTGTGGTCCCAATGGGCTGAGTAT (ssDNA, 3'-3' idT) [41t], with ~1 nM.

B13: lib1-20-5 (ssRNA)
RNA: GGGGGAGAACGCGGAUCCAAGAAUGUUCGGCCGCACGAGGUGACAGUGGUGCGGAUACGGACCGAUUGGGUUUGCCAAGCUUCGCUCUAGAUCUCCCUUUAGUGAGGGUUA
modifications: 2'-F pyrimidines
For B13, the affinity in [4], expressed as Kd, was 46 nM.

B14: lib8-9* (ssRNA)
RNA: GGGGGAGAACGCGGAUCCGCAAUCCCAGGCGCAUAGCUUCCGAGUAGACAGGAGGGAGGGGUGGAUGUGGCGUCUACUCGGCGUCGUGAAGCUUCGCUCUAGAUCUCCCUUUAGUGAGGGUUA
modifications: 2'-NH2-U, 2'-F-C
As for B14, the IC50 in [8] was determined as 124 nM.

B15: 50F (ssRNA)
RNA: GGGAGGACGAUGCGGUGAUCAAUCGGCGCUUUACUCUUGCGCUCACCGUGCCCCAGACGACUCGCCCGA
modifications: 2'-F pyrimidines
Molecule B15 came in with a Kd in data set [9] of 0.12 nM.

B16: lib9-10 (ssRNA)
RNA: GGGGGAGAACGCGGAUCCUGUCUCCACCGCCGAUACUGGGGUUCCUGGGGCCCCUCCAUGCAGGAGGGGUGGUUCGGAGAAAGCUUCGCUCUAGAUCUCCCUUUAGUGAGGGUUA
modifications: 2'-NH2 U, 2'-F C
As for B16, the Kd in data set [4] is 1.1 nM.

B17: lib6-30 (ssRNA)
RNA: GGGGGAGAACGCGGAUCCUGCUAGACCGAGGAUGCAAAGGGACAUGCAUUAGGGAAACCUAUUAUAAGAACGCGGUCGCAGAAGCUUCGCUCUAGAUCUCCCUUUAGUGAGGGUUA
modifications: 2'-F pyrimidines
In data set [4], B17 returned a Kd of 8.8 nM.

Values taken from US20030180744, “High affinity oligonucleotide ligands to growth factors” (GILEAD SCIENCES, INC., published 2003).
